Assay results taken from patent US20230203146A1 (Boehringer Ingelheim, published 2023).
Where two headings read alike, the source gives them in different places.

How the values were obtained:
[1] = target: T1, N-terminally FLAG-tagged mouse Ang2 (HEK293T conditioned medium) (mouse, UniProt O35608 19-496); experiment: competition ELISA, FLAG-mAng2 on coated mTie2-Fc
T1 construct: may be a nucleotide entry; also called mAng2; FLAG-mAng2
T1 sequence: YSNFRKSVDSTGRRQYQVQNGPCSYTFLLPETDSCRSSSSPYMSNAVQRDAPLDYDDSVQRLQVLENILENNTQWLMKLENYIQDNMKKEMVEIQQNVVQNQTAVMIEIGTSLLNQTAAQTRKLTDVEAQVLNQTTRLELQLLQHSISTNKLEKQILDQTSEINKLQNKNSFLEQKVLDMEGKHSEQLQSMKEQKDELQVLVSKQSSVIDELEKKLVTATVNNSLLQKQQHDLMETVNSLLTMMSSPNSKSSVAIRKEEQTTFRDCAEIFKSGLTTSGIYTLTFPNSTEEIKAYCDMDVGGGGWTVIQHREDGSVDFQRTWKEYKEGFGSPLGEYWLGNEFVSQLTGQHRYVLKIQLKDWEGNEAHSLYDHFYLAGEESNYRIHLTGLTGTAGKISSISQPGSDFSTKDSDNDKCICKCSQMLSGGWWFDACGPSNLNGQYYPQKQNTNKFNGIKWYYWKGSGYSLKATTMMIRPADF
Description: (§1) In brief, 2 μg/mL of recombinant mouse Tie2-Fc or cyno Tie2-Fc is coated overnight at 4° C. in a 96-well MaxiSorp plate (Nunc, Wiesbaden, Germany). Coated wells are blocked with a 1% casein solution.

[2] = target: T2, N-terminally FLAG-tagged cynomolgus Ang2 (HEK293T conditioned medium) (cynomolgus, UniProt O15123 19-496 (human entry), limits assumed); experiment: competition ELISA, FLAG-cAng2 on coated cTie2-Fc
T2 construct: may be a nucleotide entry; also called cAng2; FLAG-cAng2
T2 chain: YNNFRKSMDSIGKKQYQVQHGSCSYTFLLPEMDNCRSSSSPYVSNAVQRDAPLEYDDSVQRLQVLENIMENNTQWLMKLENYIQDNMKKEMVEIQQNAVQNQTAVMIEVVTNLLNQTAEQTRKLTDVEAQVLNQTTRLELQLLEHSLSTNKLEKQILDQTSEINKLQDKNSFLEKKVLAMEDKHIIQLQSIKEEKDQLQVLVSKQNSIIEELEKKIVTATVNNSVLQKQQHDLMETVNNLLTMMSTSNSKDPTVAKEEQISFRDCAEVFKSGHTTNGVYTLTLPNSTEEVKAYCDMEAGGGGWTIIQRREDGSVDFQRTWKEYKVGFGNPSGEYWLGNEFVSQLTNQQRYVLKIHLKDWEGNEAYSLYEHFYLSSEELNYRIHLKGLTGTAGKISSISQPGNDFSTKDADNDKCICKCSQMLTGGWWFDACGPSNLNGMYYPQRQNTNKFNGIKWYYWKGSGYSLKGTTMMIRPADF
Description: as §1

[3] = target: T1, N-terminally FLAG-tagged mouse Ang2 …; experiment: competition ELISA, FLAG-mAng2 on coated mTie2-Fc; remark: listed apart in the source
Description: as §1

[4] = target: T3, FLAG-tagged recombinant human Ang1 (Alexis Biochemicals) (human, UniProt Q15389 20-498, limits assumed); experiment: ratio of IC50 in hAng1/hTie2 ELISA to IC50 in hAng2/hTie2 ELISA
T3 construct: Bought reagent; also called hAng1; FLAG-hAng1
T3 sequence (looked up): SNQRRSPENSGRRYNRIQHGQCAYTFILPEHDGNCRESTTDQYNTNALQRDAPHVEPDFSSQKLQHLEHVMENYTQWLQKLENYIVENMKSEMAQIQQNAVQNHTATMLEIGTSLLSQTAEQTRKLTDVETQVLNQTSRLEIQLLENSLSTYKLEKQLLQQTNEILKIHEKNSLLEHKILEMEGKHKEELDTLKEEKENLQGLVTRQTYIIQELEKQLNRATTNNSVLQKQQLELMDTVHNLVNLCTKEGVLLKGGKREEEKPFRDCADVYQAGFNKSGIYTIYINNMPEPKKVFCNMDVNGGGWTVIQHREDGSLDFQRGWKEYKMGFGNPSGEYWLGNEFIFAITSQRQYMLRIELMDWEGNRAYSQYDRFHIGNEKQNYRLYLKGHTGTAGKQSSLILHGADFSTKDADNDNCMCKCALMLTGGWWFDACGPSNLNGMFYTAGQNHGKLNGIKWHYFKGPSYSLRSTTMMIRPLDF
Description: In brief, 2 μg/mL of Tie2/Fc chimera (R&D Systems, Minneapolis, Minn., USA) is coated in a 96-well MaxiSorp plate (Nunc, Wiesbaden, Germany).
In brief, 2 μg/mL of recombinant human Tie2-Fc (R&D Systems, Minneapolis, Minn., USA) is coated overnight at 4° C. in a 96-well MaxiSorp plate (Nunc, Wiesbaden, Germany). Coated wells are blocked with a 1% casein solution.

[5] = target: T4, recombinant cynomolgus Ang2-FLD (cynomolgus); experiment: SPR (Biacore T100), binder on CM5 chip, Ang2-FLD as analyte
T4 construct: domain: FLD; also called cyno Ang2-FLD
Description: (§2) In brief, VHH and benchmark compounds are immobilized on a CM5 chip via amine coupling. […] Ang2-FLD species are allowed to associate for 2 min and to dissociate for 20 min at a flow rate of 45 μL/min. In between injections, the surfaces are regenerated with a 10 sec pulse of 25 mM NaOH and 60 sec stabilization period. Association/dissociation data are evaluated by fitting a 1:1 interaction model (Langmuir binding). The affinity constant KD is calculated from resulting association and dissociation rate constants kₐ and kd and are depicted in Table 8.

[6] = target: T5, recombinant mouse Ang2-FLD (mouse, UniProt O35608 275-496, limits assumed); experiment: as above
T5 construct: domain: FLD
T5 sequence (looked up): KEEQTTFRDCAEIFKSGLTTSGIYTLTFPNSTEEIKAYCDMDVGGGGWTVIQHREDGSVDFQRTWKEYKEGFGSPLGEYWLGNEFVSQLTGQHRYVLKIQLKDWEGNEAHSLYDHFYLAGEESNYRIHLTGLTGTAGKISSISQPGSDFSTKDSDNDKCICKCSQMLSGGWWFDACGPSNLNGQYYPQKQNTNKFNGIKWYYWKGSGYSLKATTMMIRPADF
Description: as §2

[7] = target: T6, recombinant human Ang2-FLD (human, UniProt O15123 275-496, limits assumed); experiment: as above
T6 construct: domain: FLD; not used
T6 sequence (looked up): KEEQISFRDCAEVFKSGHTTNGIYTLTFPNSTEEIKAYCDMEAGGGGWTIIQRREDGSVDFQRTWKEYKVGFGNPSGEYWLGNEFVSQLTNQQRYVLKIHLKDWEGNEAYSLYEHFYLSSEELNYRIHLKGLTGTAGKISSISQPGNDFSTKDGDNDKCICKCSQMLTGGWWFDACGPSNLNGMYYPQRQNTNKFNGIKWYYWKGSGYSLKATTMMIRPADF
Description: as §2

B1: VHH 1D01 (VHH)
VHH: EVQLVESGGGLVQAGGSLRLSCAASGFTFDDYALGWFRQAAGKEREGVSCIRCSDGSTYYADSVKGRFTISSDNAKNTVYLQMNSLKPEDTAVYYCAASIVPRSKLEPYEYDAWGQGTQVTVSS
notes: also called 001D01; not shown: C-terminal c-myc tag and His6 tag
[1]
  IC50: 10 nM
[2]
  IC50: 16.4 nM
[3]
  IC50: 6.3 nM
[4]
  hAng1/hAng2 ratio: > 10800
[5]
  Kd: 1.4 nM
  koff: 0.014 s⁻¹
  kon: 9.9e+06 M⁻¹ s⁻¹
[6]
  Kd: 4.6 nM
  koff: 0.015 s⁻¹
  kon: 3.3e+06 M⁻¹ s⁻¹
[7]
  Kd: 2 nM
  koff: 0.015 s⁻¹
  kon: 7.7e+06 M⁻¹ s⁻¹
